Results from patent US20060183888A1.

Substrate: C[C@@H]1CC=N[C@H]1C(=O)NCCCC[C@H](N)C(=O)O
Test: purified protein, by the assay type
Conditions: other: 37° C., pH 7.2
Experimental: The pyrophosphate exchange reaction was essentially performed following the method of Cole and Schimmel. All reactions were performed in duplicate at 37° C. The 100 to 200 μl reactions contained (unless noted) 0.3 to 1 HM PylSHis6. […] The specific activity of the radiolabel was adjusted from 4 to 10 dpm/pmol). The concentration of protein was 0.3 to 1 μM. At specific times, 25 μl aliquots were removed and quenched in 500 μl of a stop solution containing 1.6% (w/v) activated acid-washed charcoal (Sigma Chemical Co., St. Louis, Mo.), 80 mM sodium tetrapyrophosphate, and 3.5% (v/v) perchloric acid. Samples were filtered through Whatman GF/C glass-fiber filters and then the filter was washed three times with 5 ml of 40 mM sodium tetrasodium pyrophosphate solution containing 1.7% perchloric acid (v/v) and once with 5 ml 100% ethanol. Filters were dried at 80° C. for 5 minutes then placed in 20 ml scintillation vials containing 10 ml of Ultima Gold F scintillation cocktail (PerkinElmer), shaken once, and counted in a liquid scintillation analyzer. Identical reactions without amino acid, ATP, or enzyme were also set up as negative controls in duplicate.

B1: PylS-His6 (Methanosarcina barkeri) (protein)
chain: MDKKPLDVLISATGLWMSRTGTLHKIKHHEVSRSKIYIEMACGDHLVVNNSRSCRTARAFRHHKYRKTCKRCRVSDEDINNFLTRSTESKNSVKVRVVSAPKVKKAMPKSVSRAPKPLENSVSAKASTNTSRSVPSPAKSTPNSSVPASAPAPSLTRSQLDRVEALLSPEDKISLNMAKPFRELEPELVTRRKNDFQRLYTNDREDYLGKLERDITKFFVDRGFLEIKSPILIPAEYVERMGINNDTELSKQIFRVDKNLCLRPMLAPTLYNYLRKLDRILPGPIKIFEVGPCYRKESDGKEHLEEFTMVNFCQMGSGCTRENLEALIKEFLDYLEIDFEIVGDSCMVYGDTLDIMHGDLELSSAVVGPVSLDREWGIDKPWIGAGFGLERLLKVMHGFKNIKRASRSESYYNGISTNL
Question: How did the Km turn out when B1 was run?
Answer: 53 µM

Question: And the kcat?
Answer: 0.1 s⁻¹
